{"source": "patent US20180273595A1", "about": "(REGENTS OF THE UNIVERSITY OF MICHIGAN, published 2018)", "binders": {"B1": {"name": "capped EIP1 with L at position five mutated to E (peptide)", "peptide": "Ac-LPPYEFT-NH2"}, "B2": {"name": "capped EIP1 with Y at position four mutated to E (peptide)", "peptide": "Ac-LPPELFT-NH2"}, "B3": {"name": "capped EIP1 with Y at position four mutated to K (peptide)", "peptide": "Ac-LPPKLFT-NH2"}, "B4": {"name": "biotinylated EIP1 peptide (Biotin-LPPYLFT) (peptide)", "peptide": "Biotin-LPPYLFT", "notes": "also called Biotin-EIP1; biotin-conjugated EIP1"}, "B5": {"name": "biotinylated muEIP1 peptide (peptide)", "peptide": "LPPALFT", "modifications": "also: biotin, position not given here", "notes": "also called biotin-muEIP1"}, "B6": {"name": "Biotin-HSKINPT (peptide)", "peptide": "Biotin-HSKINPT", "notes": "Control of the pull-down with Biotin-LSFGSLP; also called control peptide Biotin-HSKINPT"}, "B7": {"name": "biotinylated EIP2 peptide (Biotin-LSFGSLP) (peptide)", "peptide": "Biotin-LSFGSLP", "notes": "also called biotin-EIP2"}}, "key": {"[1]": {"biological_target": "T1, recombinant His-tagged full-length ERG (UniProt P11308 1-479, biotinylated with NHS-PEG4 biotin for the OctetRED assays)", "T1 construct": "mature; Baculovirus expression in SF9 cells, Ni-NTA purified; also called wild-type ERG; wtERG; not shown: His tag", "T1 sequence (looked up)": "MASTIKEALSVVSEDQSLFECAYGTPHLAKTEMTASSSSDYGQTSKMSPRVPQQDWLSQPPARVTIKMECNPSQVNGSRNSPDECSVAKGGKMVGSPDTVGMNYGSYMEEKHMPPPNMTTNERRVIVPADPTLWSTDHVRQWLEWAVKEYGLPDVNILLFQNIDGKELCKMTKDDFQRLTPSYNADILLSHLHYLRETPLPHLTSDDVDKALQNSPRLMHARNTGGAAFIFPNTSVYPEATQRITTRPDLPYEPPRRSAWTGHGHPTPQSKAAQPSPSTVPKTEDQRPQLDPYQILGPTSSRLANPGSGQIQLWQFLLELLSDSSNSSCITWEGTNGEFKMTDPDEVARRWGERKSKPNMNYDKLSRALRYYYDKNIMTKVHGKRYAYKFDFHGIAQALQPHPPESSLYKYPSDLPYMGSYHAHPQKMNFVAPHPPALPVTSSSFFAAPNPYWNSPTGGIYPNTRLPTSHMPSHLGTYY", "experiment": "binding assay of capped EIP1 variants (FIG. 13); capped EIP1, L5E"}, "[2]": {"biological_target": "T1, recombinant His-tagged full-length ERG", "experiment": "Kd table of synthetic peptides on ERG; assay not given"}, "[3]": {"biological_target": "T1, recombinant His-tagged full-length ERG", "experiment": "binding assay of capped EIP1 variants (FIG. 13); capped EIP1, Y4E"}, "[4]": {"biological_target": "T1, recombinant His-tagged full-length ERG", "experiment": "binding assay of capped EIP1 variants (FIG. 13); capped EIP1, Y4K"}, "[5]": {"biological_target": "T2, ERG_Y373A (purified recombinant ERG with Y373A) (UniProt P11308 1-479, limits assumed, biotinylated for OctetRED)", "T2 construct": "also called Y373A mutation", "T2 sequence (looked up)": "T1 sequence (looked up) with Y373A", "experiment": "pull-down of purified recombinant proteins with biotin peptide"}, "[6]": {"biological_target": "T3, TMPRSS2:ERG gene fusion product, endogenous in VCaP cells (UniProt P11308 33-479, limits assumed)", "T3 construct": "In cell lysates, in cells or in xenograft tumors; also called endogenous ERG; VCaP ERG", "T3 sequence (looked up)": "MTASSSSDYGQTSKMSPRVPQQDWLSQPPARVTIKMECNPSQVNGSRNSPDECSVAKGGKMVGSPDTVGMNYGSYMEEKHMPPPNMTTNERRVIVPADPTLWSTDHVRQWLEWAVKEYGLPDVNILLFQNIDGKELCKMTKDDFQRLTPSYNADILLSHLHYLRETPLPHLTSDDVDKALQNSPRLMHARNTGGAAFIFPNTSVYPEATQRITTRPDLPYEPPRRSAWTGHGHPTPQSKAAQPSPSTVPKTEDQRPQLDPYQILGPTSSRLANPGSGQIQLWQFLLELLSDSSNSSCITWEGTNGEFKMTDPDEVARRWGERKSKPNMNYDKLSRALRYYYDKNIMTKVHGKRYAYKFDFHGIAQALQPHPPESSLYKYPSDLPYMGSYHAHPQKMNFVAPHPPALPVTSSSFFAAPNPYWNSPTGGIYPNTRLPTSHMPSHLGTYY", "experiment": "pull-down of VCaP lysate with biotinylated peptide, ERG immunoblot"}, "[7]": {"biological_target": "T4, wild-type ERG endogenous in HUVEC cells (human, UniProt P11308 1-479, limits assumed)", "T4 construct": "also called HUVEC ERG", "T4 sequence (looked up)": "T1 sequence (looked up)", "experiment": "pull-down of whole cell lysate with biotinylated peptide, WB: αERG"}, "[8]": {"biological_target": "T5, wild-type ERG endogenous in MS1 mouse endothelial cells (mouse, UniProt P81270 1-486, limits assumed)", "T5 construct": "also called mERG; MS1 ERG", "T5 sequence (looked up)": "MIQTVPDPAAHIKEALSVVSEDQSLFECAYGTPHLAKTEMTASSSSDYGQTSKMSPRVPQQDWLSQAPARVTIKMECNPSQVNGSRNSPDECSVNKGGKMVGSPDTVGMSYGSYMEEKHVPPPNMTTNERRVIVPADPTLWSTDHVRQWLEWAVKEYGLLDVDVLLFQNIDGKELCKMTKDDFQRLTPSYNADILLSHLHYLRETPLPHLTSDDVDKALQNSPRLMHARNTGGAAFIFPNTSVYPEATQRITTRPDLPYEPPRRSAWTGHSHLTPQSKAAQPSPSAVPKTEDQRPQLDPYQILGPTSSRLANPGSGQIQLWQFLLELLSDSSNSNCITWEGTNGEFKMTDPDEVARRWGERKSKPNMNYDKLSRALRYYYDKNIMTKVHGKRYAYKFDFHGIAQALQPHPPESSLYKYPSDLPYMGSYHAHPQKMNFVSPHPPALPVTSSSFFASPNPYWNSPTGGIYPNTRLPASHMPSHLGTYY", "experiment": "pull-down of whole cell lysate with biotinylated peptide, WB: αERG"}, "[9]": {"biological_target": "T6, endogenous ETV1 protein of LNCaP cells (UniProt P50549 1-477, limits assumed)", "T6 sequence (looked up)": "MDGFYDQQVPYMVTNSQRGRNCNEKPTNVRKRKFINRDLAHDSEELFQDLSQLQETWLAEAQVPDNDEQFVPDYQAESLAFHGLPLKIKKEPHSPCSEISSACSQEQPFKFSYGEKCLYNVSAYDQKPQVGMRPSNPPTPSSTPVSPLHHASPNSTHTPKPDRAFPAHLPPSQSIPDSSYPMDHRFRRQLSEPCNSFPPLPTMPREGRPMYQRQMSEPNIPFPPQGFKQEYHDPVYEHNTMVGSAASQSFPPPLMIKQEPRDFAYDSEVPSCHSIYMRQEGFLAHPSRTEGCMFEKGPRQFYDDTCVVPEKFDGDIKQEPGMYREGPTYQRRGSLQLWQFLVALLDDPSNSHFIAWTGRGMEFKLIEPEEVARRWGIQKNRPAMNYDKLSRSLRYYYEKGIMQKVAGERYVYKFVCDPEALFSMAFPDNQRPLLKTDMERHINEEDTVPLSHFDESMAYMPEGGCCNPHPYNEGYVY", "experiment": "pull-down of cell lysate with biotinylated peptide, immunoblot αETV1"}, "[10]": {"biological_target": "T1, recombinant His-tagged full-length ERG", "experiment": "pull-down of purified recombinant protein with biotinylated peptide, immunoblot"}, "[11]": {"biological_target": "T7, Halo-tagged full-length ETS1 (UniProt P14921 1-441)", "T7 construct": "mature; not shown: Halo-tag at the N-terminus", "T7 sequence (looked up)": "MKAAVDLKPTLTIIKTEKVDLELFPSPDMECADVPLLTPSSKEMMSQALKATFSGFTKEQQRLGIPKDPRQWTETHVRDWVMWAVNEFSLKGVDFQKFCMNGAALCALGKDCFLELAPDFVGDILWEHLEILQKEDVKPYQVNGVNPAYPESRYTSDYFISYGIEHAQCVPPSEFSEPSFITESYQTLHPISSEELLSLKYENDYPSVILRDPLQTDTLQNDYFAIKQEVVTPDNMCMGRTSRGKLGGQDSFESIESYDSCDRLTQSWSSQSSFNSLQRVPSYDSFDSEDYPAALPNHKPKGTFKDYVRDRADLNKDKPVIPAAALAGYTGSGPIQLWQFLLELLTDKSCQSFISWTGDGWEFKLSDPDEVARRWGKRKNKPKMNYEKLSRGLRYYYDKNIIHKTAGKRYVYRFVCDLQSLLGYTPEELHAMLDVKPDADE", "experiment": "pull-down of in vitro translated Halo-tagged protein with biotinylated peptide, anti-Halo immunoblot [cont'd]"}, "[12]": {"biological_target": "T8, Halo-tagged full-length ETV1 (UniProt P50549 1-477)", "T8 construct": "mature; not shown: Halo-tag at the N-terminus", "T8 sequence (looked up)": "T6 sequence (looked up)", "experiment": "pull-down of in vitro translated Halo-tagged protein with biotinylated peptide, anti-Halo immunoblot [cont'd]"}, "[13]": {"biological_target": "T9, Halo-tagged full-length ETV6 (UniProt P41212 1-452)", "T9 construct": "mature; not shown: Halo-tag at the N-terminus", "T9 sequence (looked up)": "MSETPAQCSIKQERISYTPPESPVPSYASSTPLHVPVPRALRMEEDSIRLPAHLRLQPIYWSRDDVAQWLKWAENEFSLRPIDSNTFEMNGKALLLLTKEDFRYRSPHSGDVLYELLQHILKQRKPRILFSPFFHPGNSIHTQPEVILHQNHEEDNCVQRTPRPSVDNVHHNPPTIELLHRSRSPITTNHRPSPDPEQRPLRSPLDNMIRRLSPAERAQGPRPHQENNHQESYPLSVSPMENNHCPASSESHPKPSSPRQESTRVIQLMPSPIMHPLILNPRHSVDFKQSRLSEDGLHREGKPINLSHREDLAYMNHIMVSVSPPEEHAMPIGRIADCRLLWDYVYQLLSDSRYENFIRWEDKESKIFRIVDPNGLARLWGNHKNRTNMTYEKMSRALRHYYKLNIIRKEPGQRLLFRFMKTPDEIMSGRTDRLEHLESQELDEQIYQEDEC", "experiment": "pull-down of in vitro translated Halo-tagged protein with biotinylated peptide, anti-Halo immunoblot [cont'd]"}, "[14]": {"biological_target": "T10, Halo-tagged full-length Fli1 (UniProt Q01543 1-452)", "T10 construct": "mature; not shown: Halo-tag at the N-terminus", "T10 sequence (looked up)": "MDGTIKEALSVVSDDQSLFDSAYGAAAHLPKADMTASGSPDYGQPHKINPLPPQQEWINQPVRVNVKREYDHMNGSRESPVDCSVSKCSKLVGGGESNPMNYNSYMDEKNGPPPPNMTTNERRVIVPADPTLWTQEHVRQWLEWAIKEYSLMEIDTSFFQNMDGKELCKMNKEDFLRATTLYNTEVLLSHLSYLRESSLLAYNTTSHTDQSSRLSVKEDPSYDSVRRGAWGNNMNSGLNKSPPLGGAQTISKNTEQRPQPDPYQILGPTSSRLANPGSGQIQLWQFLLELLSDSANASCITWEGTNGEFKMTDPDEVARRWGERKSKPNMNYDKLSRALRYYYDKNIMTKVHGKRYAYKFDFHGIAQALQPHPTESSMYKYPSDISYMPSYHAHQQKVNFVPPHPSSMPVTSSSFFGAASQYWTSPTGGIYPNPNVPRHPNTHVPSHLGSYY", "experiment": "pull-down of in vitro translated Halo-tagged protein with biotinylated peptide, anti-Halo immunoblot [cont'd]"}, "[15]": {"biological_target": "T11, Halo-tagged full-length ERG (UniProt P11308 1-479)", "T11 construct": "mature; In vitro transcription/translation in wheat germ lysate; also called Halo-ERG fusion protein; not shown: HaloTag (about 35 kDa), N-terminal", "T11 sequence (looked up)": "T1 sequence (looked up)", "experiment": "pull-down of in vitro translated Halo-tagged protein with biotinylated peptide, anti-Halo immunoblot [cont'd]"}, "[16]": {"biological_target": "T12, Halo-tagged ERG mutant Y373A (UniProt P11308 1-479)", "T12 construct": "mature; also called ERG (Y373A); negative control ERG (Y373A); not shown: Halo-tag at the N-terminus", "T12 sequence (looked up)": "T1 sequence (looked up) with Y373A", "experiment": "pull-down of Halo-tagged proteins with biotin peptide"}, "[17]": {"biological_target": "T13, Halo-tagged full-length Spi1 (UniProt P17947 1-270)", "T13 construct": "mature; not shown: Halo-tag at the N-terminus", "experiment": "pull-down of Halo-tagged proteins with biotin peptide"}}, "note": "Numbering of substitutions follows the chain as printed. Where no end group is shown, it is not given here. The star is where a group is joined. Biotin = O=C1N[C@H]2[C@H](CS[C@H]2CCCCC(=O)*)N1", "data": [{"binder": "B1", "values": [{"measurement": "Kd", "setting": "[1]", "value": 5.1, "unit": "µM"}, {"measurement": "Kd", "setting": "[2]", "value": 5.09, "unit": "µM"}]}, {"binder": "B2", "values": [{"measurement": "Kd", "setting": "[3]", "value": 3.6, "unit": "µM"}, {"measurement": "Kd", "setting": "[2]", "value": 3.6, "unit": "µM"}]}, {"binder": "B3", "values": [{"measurement": "Kd", "setting": "[4]", "value": 4.3, "unit": "µM"}, {"measurement": "Kd", "setting": "[2]", "value": 4.27, "unit": "µM"}]}, {"binder": "B4", "values": [{"measurement": "binding result", "setting": "[5]", "value": "no binding"}]}, {"binder": "B5", "values": [{"measurement": "binding result", "setting": "[6]", "value": "no binding (tested: 20 µM)"}, {"measurement": "binding result", "setting": "[7]", "value": "no binding"}, {"measurement": "binding result", "setting": "[8]", "value": "no binding"}, {"measurement": "binding result", "setting": "[9]", "value": "no binding (tested: 50 µM)"}, {"measurement": "binding result", "setting": "[10]", "value": "no binding"}]}, {"binder": "B6", "values": [{"measurement": "binding result", "setting": "[11]", "value": "no binding"}, {"measurement": "binding result", "setting": "[12]", "value": "no binding"}, {"measurement": "binding result", "setting": "[13]", "value": "no binding"}, {"measurement": "binding result", "setting": "[14]", "value": "no binding"}, {"measurement": "binding result", "setting": "[15]", "value": "no binding"}]}, {"binder": "B7", "values": [{"measurement": "binding result", "setting": "[16]", "value": "no binding"}, {"measurement": "binding result", "setting": "[17]", "value": "no binding"}]}]}
